To fix the notation:
T1: β-catenin (human, UniProt P35222 2-781)
T1 construct: Endogenous protein co-immunoprecipitated from cell lysates or nuclear fractions; also called nuclear β-catenin
T1 sequence (looked up): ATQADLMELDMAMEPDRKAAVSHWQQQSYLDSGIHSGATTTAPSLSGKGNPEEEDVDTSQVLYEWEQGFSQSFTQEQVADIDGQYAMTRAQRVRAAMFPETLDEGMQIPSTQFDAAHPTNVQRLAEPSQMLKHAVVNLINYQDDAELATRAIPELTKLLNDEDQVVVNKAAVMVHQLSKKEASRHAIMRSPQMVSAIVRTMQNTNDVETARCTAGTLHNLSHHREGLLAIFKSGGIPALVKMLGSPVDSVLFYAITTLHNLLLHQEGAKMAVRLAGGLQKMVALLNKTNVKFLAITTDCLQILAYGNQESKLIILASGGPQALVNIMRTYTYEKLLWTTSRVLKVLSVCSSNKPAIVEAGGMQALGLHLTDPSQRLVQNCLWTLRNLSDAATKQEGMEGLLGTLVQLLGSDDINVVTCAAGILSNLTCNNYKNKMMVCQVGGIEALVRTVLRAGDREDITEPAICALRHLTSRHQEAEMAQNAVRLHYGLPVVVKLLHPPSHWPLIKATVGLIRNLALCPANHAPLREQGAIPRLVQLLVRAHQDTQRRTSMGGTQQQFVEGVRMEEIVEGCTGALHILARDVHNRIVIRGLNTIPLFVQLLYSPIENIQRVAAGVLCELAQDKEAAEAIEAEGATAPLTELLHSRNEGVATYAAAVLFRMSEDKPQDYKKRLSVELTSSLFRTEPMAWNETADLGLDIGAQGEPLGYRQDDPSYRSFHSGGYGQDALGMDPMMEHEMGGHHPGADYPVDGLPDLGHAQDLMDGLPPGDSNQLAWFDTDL

T2: HA-tagged PSPC1 (wild type) (human, UniProt Q8WXF1 1-523)
T2 construct: Full-length PSPC1 cDNA cloned into pcDNA3.0-HA and expressed in 293T or SK-hep1 cells; also called HA-PSPC1; wild-type PSPC1; not shown: HA tag from the pcDNA3.0-HA plasmid
T2 sequence: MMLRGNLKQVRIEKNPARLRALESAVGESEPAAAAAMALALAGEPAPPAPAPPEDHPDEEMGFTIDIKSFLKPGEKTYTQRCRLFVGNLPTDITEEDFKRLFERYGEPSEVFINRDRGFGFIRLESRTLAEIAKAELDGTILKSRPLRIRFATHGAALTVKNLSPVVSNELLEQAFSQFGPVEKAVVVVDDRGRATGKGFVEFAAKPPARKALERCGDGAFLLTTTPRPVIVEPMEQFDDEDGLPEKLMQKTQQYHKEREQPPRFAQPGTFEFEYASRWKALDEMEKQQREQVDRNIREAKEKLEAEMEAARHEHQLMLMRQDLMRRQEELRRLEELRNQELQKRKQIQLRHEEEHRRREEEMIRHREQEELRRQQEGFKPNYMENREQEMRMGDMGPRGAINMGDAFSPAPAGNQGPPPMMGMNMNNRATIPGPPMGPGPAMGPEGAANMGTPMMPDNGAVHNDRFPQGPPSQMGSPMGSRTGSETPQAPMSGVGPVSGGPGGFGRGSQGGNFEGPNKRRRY

B1: Paraspeckle component 1 (PSPC1), human (other)
chain: T2 sequence
notes: Endogenous PSPC1 of human HCC cell lines (Huh-7, Mahlavu); also called endogenous PSPC1; nuclear PSPC1
B2: PSPC1-Y523F mutant (HA-tagged) (other)
chain: T2 sequence with Y523F
notes: All PSPC1 mutants were generated in a pCDNA3.0-HA plasmid; also called Y523F PSPC1 mutant; HA-tagged Y523F mutant; not shown: HA tag from the pCDNA3.0-HA plasmid
B3: Flag-tagged PTK6 kinase-dead mutant (PTK6-K219M) (enzyme)
chain: not shown
notes: also called PTK6-KM; KM mutant; not shown: Flag tag
B4: EGFP-conjugated PSPC1-CT131 (PSPC1 C-terminal 131 fragment) (other)
chain: MGDMGPRGAINMGDAFSPAPAGNQGPPPMMGMNMNNRATIPGPPMGPGPAMGPEGAANMGTPMMPDNGAVHNDRFPQGPPSQMGSPMGSRTGSETPQAPMSGVGPVSGGPGGFGRGSQGGNFEGPNKRRRY
notes: PSPC1-CT131 cloned into pEGFP-C2 and expressed in Mahlavu cells; also called PSPC1-CT131-EGFP; EGFP-PSPC1-CT; not shown: EGFP from the pEGFP-C2 plasmid

Substitutions are numbered along the chain they refer to. In names and notes the source's numbering stands.

Assay [1] has as its target T1, β-catenin. As to the kind of experiment: IP/western blotting, Huh-7 cells with HGF stimulation (FIG. 3b). As to the method: (§1) (a-b) Huh-7 treated with or without HGF (10 ng/ml) for EMT induction. Under HGF stimulation, nuclear PSPC1 interacted with β-catenin and loss of PTK6 interaction owing to an increase of cytosolic PTK6 accumulation in HGF-induced EMT model in IP/westem blotting analysis. Arrowhead is the IgG heavy chain. Arrows are indicated proteins after IB. (c) Nuclear (SP1 as marker) and cytosolic (α-tubulin as marker) localization of PSPC1/PTK6 interaction and β-catenin analyzed by western blotting analysis in SK-hep1 cells. PSPC1-Y523F mutant further enhanced nuclear localization of β-catenin. (d) Nuclear (SP1 as marker) localization of PSPC1/PTK6 interaction and βcatenin analyzed by IP/western blotting analysis in SK-hep1 cells. Y523F PSPC1 mutant further enhanced nuclear interaction with β-catenin but not PTK6. […] Promoter activation (fold) was calculated relative to vector alone (Mock) in cells. […] (h) Secreted cytokines Wnt1 and Wnt3a protein expression measured by ELISA assays of conditional medium after transfection of divergent PSPC1/PTK6 expression constructs in SK-hep1 cells.
For orientation: In western blotting, separated proteins are transferred to a membrane and probed.

In assay [2] the target is T1, β-catenin. As to the kind of experiment: IP/western blotting of nuclear fraction, SK-hep1 cells (FIG. 3d). As to the method:
as §1

Assay [3] deals with T2, HA-tagged PSPC1 (wild type). In words: subcellular fractionation and western blotting, SK-hep1 cells (FIG. 1e).
For assay [4], the target named is B1. In words: conclusion drawn from expression and fractionation experiments in Mahlavu cells; no direct binding assay described.

We go through four molecules from patent publication US20210087239A1 (ACADEMIA SINICA, published 2021).

Take B1: the binding result with β-catenin [1] is recorded as “binds”.
Consider B2, for which the binding result with β-catenin [2] is recorded as “binds”.
Regarding B3, in assay [3], the binding result is on record as “no binding”.
Consider B4, for which, in assay [4], the binding result is given as “binds”.
